Test results taken from US20250043019A1 (Janssen / Centocor, published 2025).

T1: human CD20 on the cell surface (human, UniProt P11836 1-297)
T1 construct: whole, on cells; On B-lymphoma lines, primary B cells, K562 CD20 or HEK293 transfectants; also called MS4A1; B-lymphocyte antigen CD20
T1 sequence (looked up): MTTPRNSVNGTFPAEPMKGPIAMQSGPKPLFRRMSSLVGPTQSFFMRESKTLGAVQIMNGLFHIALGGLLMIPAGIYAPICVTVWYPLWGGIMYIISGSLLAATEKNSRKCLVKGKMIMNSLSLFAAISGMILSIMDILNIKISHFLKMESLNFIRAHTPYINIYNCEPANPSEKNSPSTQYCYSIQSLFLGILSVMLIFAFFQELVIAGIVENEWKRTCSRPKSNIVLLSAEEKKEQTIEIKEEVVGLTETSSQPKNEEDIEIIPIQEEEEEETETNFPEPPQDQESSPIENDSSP

B1: C923B38 CD79bxCD20xCD3 trispecific antibody (other)
heavy: QVQLQESGPGLVKPSETLSLTCSVSGASISSFYWSWIRQPADEGLEWIGRISPSGKTNYIPSLKSRIIMSLDASKNQFSLRLNSVTAADTAMYYCARGEYSGTYSYSFDVWGQGTMVTVSSASTKGPSVFPLAPSSKSTSGGTAALGCLVKDYFPEPVTVSWNSGALTSGVHTFPAVLQSSGLYSLSSVVTVPSSSLGTQTYICNVNHKPSNTKVDKKVEPKSCDKTHTCPPCPAPEAAGGPSVFLFPPKPKDTLMISRTPEVTCVVVSVSHEDPEVKFNWYVDGVEVHNAKTKPREEQYNSTYRVVSVLTVLHQDWLNGKEYKCKVSNKALPAPIEKTISKAKGQPREPQVYTLPPSREEMTKNQVSLSCAVKGFYPSDIAVEWESNGQPENNYKTTPPVLDSDGSFFLVSKLTVDKSRWQQGNVFSCSVMHEALHNRFTQKSLSLSPGK
light: DIVMTQSPLSLSVTPGEPASISCRSSESLLDSEDGNTYLDWFLQKPGQSPQLLIYTLSYRASGVPDRFSGSGSDTDFTLHISSLEAEDVGLYYCMQRMEFPLTFGQGTKVEIKRTVAAPSVFIFPPSDEQLKSGTASVVCLLNNFYPREAKVQWKVDNALQSGNSQESVTEQDSKDSTYSLSSTLTLSKADYEKHKVYACEVTHQGLSSPVTKSFNRGEC
chain: EIVLTQSPATLSASPGERVTLSCSASSSVSYMNWYQQKPGQAPRRWIYDSSKLASGVPARFSGSGSGRDYTLTISSLEPEDFAVYYCQQWSRNPPTFGGGTKVEIKGGSEGKSSGSGSESKSTGGSQVQLVQSGAEVKKPGSSVKVSCKASGYTFTRSTMHWVKQAPGQGLEWIGYINPSSAYTNYNQKFQGRVTLTADKSTSTAYMELSSLRSEDTAVYYCASPQVHYDYAGFPYWGQGTLVTVSSEPKSSDKTHTCPPCPAPEAAGGPSVFLFPPKPKDTLMISRTPEVTCVVVSVSHEDPEVKFNWYVDGVEVHNAKTKPREEQYNSTYRVVSVLTVLHQDWLNGKEYKCKVSNKALPAPIEKTISKAKGQPREPQVYTLPPSREEMTKNQVSLWCLVKGFYPSDIAVEWESNGQPENNYKTTPPVLDSDGSFFLYSKLTVDKSRWQQGNVFSCSVMHEALHNHYTQKSLSLSPGKGGSEGKSSGSGSESKSTGGSAIQLTQSPSSLSASVGDRVTITCRASSSVSYIHWFQQKPGKAPKPLIYATSNLASGVPSRFSGSGSGTDFTLTISSLQPEDFATYYCQQWTSNPPTFGQGTKLEIKGGSEGKSSGSGSESKSTGGSQVQLVQSGAEVKKPGSSVKVSCKASGYTFTSYNMHWVRQAPGQGLEWMGAIYPGNGDTSYAQKFQGRVTITADKSTSTAYMELSSLRSEDTAVYYCARSTYYGGDWYFNVWGQGTLVTVSS
notes: Trispecific IgG1: CD79b Fab arm (HC1/LC) plus one chain CD3 scFv-Fc-CD20 scFv; also called CD9B374 / CD3B2030-N106A-scFv-LH-C20B22
B2: CD20 binding arm of C923B169 tested as scFv (scFv)
chain: EIVLTQSPATLSLSPGERATLSCRASLSVSSMHWYQQKPGQAPRLLIYATSNLASGIPARFSGSGSGTDFTLTISSLEPEDFAVYYCQQWIFNPPTFGGGTKVEIKGGSEGKSSGSGSESKSTGGSQVQLVQSGAEVKKPGSSVKVSCKASGYTFSSYNMHWVRQAPGQGLEWMGAIYPGAGDTSYAQKFQGRVTITADESTSTAYMELSSLRSEDTAVYYCARSNYYGSSGWYFDVWGKGTTVTVSS

Columns and labels:
[1] = target: T2, cynomolgus monkey CD79b antigen (cynomolgus monkey); assay: SPR
T2 construct: also called cyno CD79b; CD9W1.001

[2] = target: T1, human CD20 on the cell surface; assay: cell-based binding on CARNAVAL cells

Binder	Kd [1] [nM]	EC50 [2] [nM]
B1	> 3000	
B2		16
